Source: patent publication US6858428B2, “Human and animal cell culture medium containing antithrombin III for suppressing cell death” (Agency of Industrial Science and Technology, priority 1999, dated 2005)
“Also recorded” adds a separate entry of the source.

B1: Antithrombin III: Lyophilized antithrombin III purified from bovine serum (protein, UniProt P41361 33-465, looked up)
Antithrombin-III: HRSPVEDVCTAKPRDIPVNPMCIYRSSEKKATEGQGSEQKIPGATNRRVWELSKANSHFATAFYQHLADSKNNNDNIFLSPLSISTAFAMTKLGACNNTLKQLMEVFKFDTISEKTSDQIHFFFAKLNCRLYRKANKSSELVSANRLFGGKSITFNETYQDISEVVYGAKLQPLDFKGNAEQSRLTINQWISNKTEGRITDVIPPQAINEFTVLVLVNTIYFKGLWKSKFSPENTRKELFYKADGESCSVLMMYQESKFRYRRVAESTQVLELPFKGDDITMVLILPKLEKTLAKVEQELTPDMLQEWLDELTETLLVVHMPRFRIEDSFSVKEQLQDMGLEDLFSPEKSRLPGIVAEGRSDLYVSDAFHKAFLEVNEEGSEAAASTVISIAGRSLNSDRVTFKANRPILVLIREVALNTIIFMGRVANPCVD
B2: EGF: growth factor reported as survival factor (protein, UniProt P01133 23-1207, looked up)
Pro-epidermal growth factor: PQHWSCPEGTLAGNGNSTCVGPAPFLIFSHGNSIFRIDTEGTNYEQLVVDAGVSVIMDFHYNEKRIYWVDLERQLLQRVFLNGSRQERVCNIEKNVSGMAINWINEEVIWSNQQEGIITVTDMKGNNSHILLSALKYPANVAVDPVERFIFWSSEVAGSLYRADLDGVGVKALLETSEKITAVSLDVLDKRLFWIQYNREGSNSLICSCDYDGGSVHISKHPTQHNLFAMSLFGDRIFYSTWKMKTIWIANKHTGKDMVRINLHSSFVPLGELKVVHPLAQPKAEDDTWEPEQKLCKLRKGNCSSTVCGQDLQSHLCMCAEGYALSRDRKYCEDVNECAFWNHGCTLGCKNTPGSYYCTCPVGFVLLPDGKRCHQLVSCPRNVSECSHDCVLTSEGPLCFCPEGSVLERDGKTCSGCSSPDNGGCSQLCVPLSPVSWECDCFPGYDLQLDEKSCAASGPQPFLLFANSQDIRHMHFDGTDYGTLLSQQMGMVYALDHDPVENKIYFAHTALKWIERANMDGSQRERLIEEGVDVPEGLAVDWIGRRFYWTDRGKSLIGRSDLNGKRSKIITKENISQPRGIAVHPMAKRLFWTDTGINPRIESSSLQGLGRLVIASSDLIWPSGITIDFLTDKLYWCDAKQSVIEMANLDGSKRRRLTQNDVGHPFAVAVFEDYVWFSDWAMPSVMRVNKRTGKDRVRLQGSMLKPSSLVVVHPLAKPGADPCLYQNGGCEHICKKRLGTAWCSCREGFMKASDGKTCLALDGHQLLAGGEVDLKNQVTPLDILSKTRVSEDNITESQHMLVAEIMVSDQDDCAPVGCSMYARCISEGEDATCQCLKGFAGDGKLCSDIDECEMGVPVCPPASSKCINTEGGYVCRCSEGYQGDGIHCLDIDECQLGEHSCGENASCTNTEGGYTCMCAGRLSEPGLICPDSTPPPHLREDDHHYSVRNSDSECPLSHDGYCLHDGVCMYIEALDKYACNCVVGYIGERCQYRDLKWWELRHAGHGQQQKVIVVAVCVVVLVMLLLLSLWGAHYYRTQKLLSKNPKNPYEESSRDVRSRRPADTEDGMSSCPQPWFVVIKEHQDLKNGGQPVAGEDGQAADGSMQPTSWRQEPQLCGMGTEQGCWIPVSSDKGSCPQVMERSFHMPSYGTQTLEGGVEKPHSLLSANPLWQQRALDPPHQMELTQ
modifications: Pro-epidermal growth factor

Legend:
osteoblast cell line ROS = experiment: Survival of osteoblast cell line ROS in serum-free culture (viable cell count after 3 days); format: cell-based; conditions: ROS osteoblasts
Description: Two mL cell suspension of osteoblast cell line ROS dispersed in trypsin (5×10^5 cells) were inoculated on six multi-well plates and pre-cultured by using Dulbecco's modified Eagle medium (DMEM) containing 10% fetal bovine serum, 1.6 g/L sodium hydrogencarbonate, 0.584 g/L L-glutamine, and 0.08 g/L kanamycin sulfate at 37° C. in a 5% CO2 gas phase. After one day, the broth was recovered, the cell surfaces were washed with serum-free medium, and the culture was continued for another 3 days with the addition of medium containing 10%, 0% fetal bovine serum, or 2 mL of fresh medium comprising 13 μg/mL antithrombin III added to media containing no fetal bovine serum (0%). The viable cell count was assayed after 3 days of culture.

hepatoma cell line HepG2 = experiment: Survival of hepatoma cell line HepG2 in serum-free culture (viable cell count after 3 days); format: cell-based; conditions: for Survival rate: HepG2, DMEM without fetal bovine serum; for Effect in controlling cell death (in words): HepG2, serum-free medium
Description: Two mL cell suspension of hepatoma cell line HepG2 dispersed in trypsin (5×10^5 cells) were inoculated on six multi-well plates and pre-culture by using Dulbecco's modified Eagle medium (DMEM) containing 5% fetal bovine serum, 1.6 g/L sodium hydrogencarbonate, 0.584 g/L L-glutamine, and 0.08 g/L kanamycin sulfate at 37° C. in a 5% CO2 gas phase. […] The viable cell count was assayed after 3 days of culture.
(§1) The hepatoma cell line HepG2 was pre-cultured in the same manner as in Example 1. After 1 day, the broth was recovered, the cell surfaces were washed with serum-free medium, and the culture was continued for another 3 days with the addition of medium containing 5%, 0% fetal bovine serum, or 2 mL of fresh medium comprising antithrombin III added in concentrations ranging from 1 to 25 μg/mL to media containing no fetal bovine serum (0%). The viable cell count was assayed after 3 days of culture.
as §1, with “III or any of-various synthetic protease inhibitors given in Table 4” for “III”, “added” for “added in concentrations ranging from 1 to 25 μg/mL”

Molecule	Survival rate (osteoblast cell line ROS; DMEM without fetal bovine serum, additive 13 μg/ml) [%]	Effect in controlling cell death (in words) (osteoblast cell line ROS; serum-free medium, additive 13 μg/mL)	Survival rate (hepatoma cell line HepG2; additive 1 μg/ml) [%]	Survival rate (hepatoma cell line HepG2; additive 2.5 μg/ml) [%]	Survival rate (hepatoma cell line HepG2; additive 5 μg/ml) [%]	Survival rate (hepatoma cell line HepG2; additive 10 μg/ml) [%]	Survival rate (hepatoma cell line HepG2; additive 17.5 μg/ml) [%]	Survival rate (hepatoma cell line HepG2; additive 25 μg/ml) [%]	Effect in controlling cell death (in words) (hepatoma cell line HepG2; additive 1 μg/mL)	Effect in controlling cell death (in words) (hepatoma cell line HepG2; additive 2.5 μg/mL (so in the source))	Effect in controlling cell death (in words) (hepatoma cell line HepG2; additive 25 μg/mL)	Effect in controlling cell death (in words) (hepatoma cell line HepG2; concentration not given)	Survival rate (hepatoma cell line HepG2; additive 50 ng/ml) [%]
B1	85.5	considerably effective in controlling cell death	68.6	68.0	74.1	88.5	93.3	94.0	cell death was suppressed	virtually the same survival rate as a serum concentration of 5%	highly effective in controlling cell death	virtually the same survival rate as that of the medium with a 5% serum concentration; also recorded: considerably effective in controlling cell death	
B2													54.7
